Test results taken from US20160193316A1 (priority 1994, published 2016).
Where two headings read alike, the source gives them in different places.

Columns and labels:
DRB1*0802 (DR8w2) = biological target: T1, DRB1*0802 (DR8w2) (Homo sapiens, UniProt P01903+P01911, A100R/A103L/A169T/F76Y/H45Y/I96F/K41T/L162R/M171V/P40S/Q125H/Q178H/Q39Y/Q99D/R218S/R42G/S66Y/V115G/W38E); test: biochemical; type: binding
T1 construct: endogenous in cells; host or cells: OLL

DRB5*0101 (DR2w2β2) = biological target: T2, DRB5*0101 (DR2w2β2) (Homo sapiens, UniProt P01903+Q30154); type: binding
T2 construct: expressed in transfected cells; host or cells: L416.3 (fibroblasts) or GM3107

HLA-A*0201 = HLA-A*0201 (Homo sapiens, UniProt P04439, D140Y/D185E/D98H/E176V/E277Q/G131W/G231S/I119V/I121R/I166T/I218V/L300P/L318F/N151K/N90K/P208A/P217A/Q86G/Q94H/R138H/R169H/T345S); test: HLA class I peptide binding assay
DRB1*1501 (DR2w2β1) = biological target: T3, DRB1*1501 (DR2w2β1) (Homo sapiens, UniProt P01903+P01911); test: HLA class II peptide binding assay; conditions: Table XIXb; DR2w2β1
T3 construct: expressed in transfected cells; host or cells: L466.1 (fibroblasts)

DRB1*1201 (DR5w12) = biological target: T4, DRB1*1201 (DR5w12) (Homo sapiens, UniProt P01903+P01911, A100R/A169T/D57E/D86V/F55L/H45Y/K41T/L162R/M171V/P40S/Q125H/Q178H/Q39Y/Q99D/R42G/S66L/T262R/V114A/V67L/W38E/Y59H/Y61H/Y89S); test: HLA class II peptide binding assay; conditions: Table XIXb; DR5w12
T4 construct: endogenous in cells; host or cells: Herluf

DRB1*0401 (DR4w4) = biological target: T5, DRB1*0401 (DR4w4) (Homo sapiens, UniProt P01903+P01911, A100K/A169T/F76Y/I96L/K127E/L162R/M171V/N62H/P40V/Q125Y/R42H/S133A/S149N/S66Y/V115G/V209L/W38E); test: HLA class II peptide binding assay; conditions: Table XIXb; DR4w4
T5 construct: endogenous in cells; host or cells: Preiss

DRB1*0701 (DR7) = biological target: T6, DRB1*0701 (DR7) (Homo sapiens, UniProt P01903+P01911, A100R/A102G/A103Q/D57E/D86V/E43K/F76Y/K127E/L162R/M171V/P40G/Q125H/Q99D/R33Q/R42Y/R54Q/S133A/S66F/T210M/V115G/Y107V/Y59L/Y89S); test: biochemical; type: binding
T6 construct: endogenous in cells; host or cells: Pitout

DRB1*1101 (DR5w11) = biological target: T7, DRB1*1101 (DR5w11) (Homo sapiens, UniProt P01903+P01911, A100R/A169T/A87E/I96F/K41T/L162R/M171V/P40S/Q125H/Q178H/Q39Y/Q99D/R42S/S66Y/T262R/V115G/W38E); test: biochemical; type: binding
T7 construct: endogenous in cells; host or cells: Sweig

DRB1*0301 (DR3) = biological target: T8, DRB1*0301 (DR3) (Homo sapiens, UniProt P01903+P01911, A100K/A102G/A103R/A169T/F55Y/I96L/K41T/L162R/M171V/P40S/Q125H/Q178H/Q39Y/R42S/S66N/T106N/T262R/W38E/Y61H); test: HLA class II peptide binding assay (pH 4.5); conditions: for DR3 binding data: Table XIXb; for DR3 binding information: DR3a motif peptides, unit not given, exemplary 15-mer containing the core sequence
T8 construct: endogenous in cells; host or cells: MAT

DRB1*0101 (DR1) = biological target: T9, DRB1*0101 (DR1) (Homo sapiens, UniProt P01903+P01911, A100R/D57E/F55L/F60I/F76Y/I96L/L162R/M171V/P40L/Q125E/R42F/V115G/Y59C); test: HLA class II peptide binding assay; conditions: Table XIXb, Malaria Super Motif Peptides With Binding Data; DR1
T9 construct: endogenous in cells; host or cells: LG2

DRB1*0901 (DR9) = biological target: T10, DRB1*0901 (DR9) (Homo sapiens, UniProt P01903+P01911, A100R/A103E/D57H/D86V/F55Y/F60I/F76Y/I96F/K127E/L162R/M171V/P40D/Q125H/Q99R/R33Q/R42F/S133A/S66N/T210M/V115G/W38K/Y107V/Y59G/Y89S); test: biochemical; type: binding
T10 construct: endogenous in cells; host or cells: HID

DRB1*1302 (DR6w19) = biological target: T11, DRB1*1302 (DR6w19) (Homo sapiens, UniProt P01903+P01911, A100E/A169T/K41T/L162R/M171V/P40S/Q125H/Q178H/Q39Y/Q99D/R42S/S66N/T262R/V115G/W38E/Y61H); test: HLA class II peptide binding assay; conditions: Table XIXb; DR6w19
T11 construct: endogenous in cells; host or cells: H0301

DRB1*0405 (DR4w15) = biological target: T12, DRB1*0405 (DR4w15) (Homo sapiens, UniProt P01903+P01911, A100R/A169T/D86S/F76Y/I96L/K127E/L162R/M171V/N62H/P40V/Q125Y/R42H/S133A/S149N/S66Y/V115G/V209L/W38E); test: HLA class II peptide binding assay; conditions: Table XIXb; DR4w15
T12 construct: endogenous in cells; host or cells: KT3

HLA-B*0702 = biological target: T13, HLA-B*0702 (Homo sapiens, UniProt P01889); test: HLA class I peptide binding assay; conditions: Malaria B07 super motif peptides; binding value, no unit
T13 construct: endogenous in cells; host or cells: GM3107

DRB4*0101 (DRw53) = biological target: T14, DRB4*0101 (DRw53) (Homo sapiens, UniProt P01903+P13762, G164S); test: HLA class II peptide binding assay (pH 5.0); conditions: Table XIXb; DRw53
T14 construct: expressed in transfected cells; host or cells: L257.6 (fibroblasts)

HLA-A*2402 = HLA-A*2402 (Homo sapiens, UniProt P04439, D101N/D140Y/D185E/E176V/E190D/F33S/G103R/G107R/I119L/I121M/I306V/K335N/L105A/L180Q/L300P/N151K/N90K/Q86E/Q94H/R106L/R138H/R89G/T104I/T345S/V100E/W191G/Y123F); test: HLA class I peptide binding assay
[1] = Malaria A02 motif peptides, Table VIII, unit not given

T5 sequence (P01903 26-254 partner, other chains not shown): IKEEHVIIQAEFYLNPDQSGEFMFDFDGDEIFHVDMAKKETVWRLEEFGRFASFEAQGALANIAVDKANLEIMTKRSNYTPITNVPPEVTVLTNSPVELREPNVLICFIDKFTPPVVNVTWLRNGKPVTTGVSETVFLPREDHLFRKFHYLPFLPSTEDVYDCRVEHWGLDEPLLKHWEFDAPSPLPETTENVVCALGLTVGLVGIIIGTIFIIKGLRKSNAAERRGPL
T7 sequence (P01903 26-254, other chains not shown): as the sequence (P01903 26-254 partner, other chains not shown) above
T9 sequence (P01903 26-254 partner, other chains not shown): as above
T11 sequence (P01903 26-254, other chains not shown): as the sequence (P01903 26-254 partner, other chains not shown) above

LIFFDLFLV
DR8w2 binding data (DRB1*0802 (DR8w2)): 0.0007
DR2w2β2 binding data (DRB5*0101 (DR2w2β2)): 0.0019
A*0201 (binding information) (HLA-A*0201; [1]): 0.0890
DR2w2β1 binding data (DRB1*1501 (DR2w2β1)): 0.0048
DR5w12 binding data (DRB1*1201 (DR5w12)): 0.0016
DR4w4 binding data (DRB1*0401 (DR4w4)): 0.0130
DR7 binding data (DRB1*0701 (DR7)): 0.0028
DR5w11 binding data (DRB1*1101 (DR5w11)): 0.0019
DR3 binding data (DRB1*0301 (DR3)): -0.0008
DR1 binding data (DRB1*0101 (DR1)): 0.0006
DR9 binding data (DRB1*0901 (DR9)): -0.0003
DR6w19 binding data (DRB1*1302 (DR6w19)): 0.0006
DR4w15 binding data (DRB1*0405 (DR4w15)): -0.0009

IPEDSEKEV
B*0702 (binding information) (HLA-B*0702): 0.0001
DR3 binding information (DRB1*0301 (DR3)): -0.0130

LTMSNVKNV
DR8w2 binding data (DRB1*0802 (DR8w2)): 0.0110
DR2w2β2 binding data (DRB5*0101 (DR2w2β2)): 0.0009
A*0201 (binding information) (HLA-A*0201; [1]): 0.0010
DR2w2β1 binding data (DRB1*1501 (DR2w2β1)): 0.0003
DRw53 binding data (DRB4*0101 (DRw53)): 0.0024
DR5w12 binding data (DRB1*1201 (DR5w12)): 0.0001
DR4w4 binding data (DRB1*0401 (DR4w4)): 0.0023
DR7 binding data (DRB1*0701 (DR7)): 0.0410
DR5w11 binding data (DRB1*1101 (DR5w11)): 0.0030
DR3 binding data (DRB1*0301 (DR3)): 0.0058
DR1 binding data (DRB1*0101 (DR1)): 0.0018
DR9 binding data (DRB1*0901 (DR9)): 0.0710
DR6w19 binding data (DRB1*1302 (DR6w19)): 0.0430
DR4w15 binding data (DRB1*0405 (DR4w15)): 0.0074

SVLACLLGNV
A*0201 (binding information) (HLA-A*0201; [1]): 0.0022

MPNDPNRNV
B*0702 (binding information) (HLA-B*0702): 0.0001
DR3 binding information (DRB1*0301 (DR3)): -0.0033

KYLVIVFLI
A*201 (binding information) (HLA-A*2402): 4.6000
A*2401 (binding information, Malaria A24 motif peptides) (HLA-A*2402): 4.6000

PYAQEPAPF
HLA-A24 binding value (HLA-A*2402; Table X, Malaria A24 Super Motif Peptides With Binding Information, unit not given): 0.0370

QLVVILIDGI
A*0201 (binding information) (HLA-A*0201; [1]): 0.0002

GLIMVLSFL
A*0201 (binding information) (HLA-A*0201): 0.0630

WVNHAVPLA
DR8w2 binding data (DRB1*0802 (DR8w2)): 1.8000
DR2w2β2 binding data (DRB5*0101 (DR2w2β2)): 0.1600
A*0201 (binding information) (HLA-A*0201; [1]): 0.0008
DR2w2β1 binding data (DRB1*1501 (DR2w2β1)): 0.0350
DRw53 binding data (DRB4*0101 (DRw53)): 0.0430
DR5w12 binding data (DRB1*1201 (DR5w12)): 0.0240
DR4w4 binding data (DRB1*0401 (DR4w4)): 5.0000
DR7 binding data (DRB1*0701 (DR7)): 0.4400
DR5w11 binding data (DRB1*1101 (DR5w11)): 0.0079
DR3 binding data (DRB1*0301 (DR3)): 0.4000
DR1 binding data (DRB1*0101 (DR1)): 0.1900
DR9 binding data (DRB1*0901 (DR9)): 4.6000
DR6w19 binding data (DRB1*1302 (DR6w19)): 0.8900
DR4w15 binding data (DRB1*0405 (DR4w15)): 0.0360

DPNRNVDBIA (EQPQGDDNNL)
B*0702 (binding information) (HLA-B*0702): 0.0002

VIGPFMKAV
DR8w2 binding data (DRB1*0802 (DR8w2)): 0.0230
A*0201 (binding information) (HLA-A*0201; [1]): 0.0004
DR5w12 binding data (DRB1*1201 (DR5w12)): 0.0920
DR4w4 binding data (DRB1*0401 (DR4w4)): -0.0020

FMKAVCVEV
DR8w2 binding data (DRB1*0802 (DR8w2)): -0.0003
DR2w2β2 binding data (DRB5*0101 (DR2w2β2)): 0.0430
A*0201 (binding information) (HLA-A*0201; [1]): 0.0290
DR2w2β1 binding data (DRB1*1501 (DR2w2β1)): 0.0003
DRw53 binding data (DRB4*0101 (DRw53)): 0.0700
DR5w12 binding data (DRB1*1201 (DR5w12)): 0.0038
DR4w4 binding data (DRB1*0401 (DR4w4)): -0.0006
DR7 binding data (DRB1*0701 (DR7)): 0.0019
DR5w11 binding data (DRB1*1101 (DR5w11)): -0.0004
DR3 binding data (DRB1*0301 (DR3)): -0.0008
DR1 binding data (DRB1*0101 (DR1)): 0.0072
DR9 binding data (DRB1*0901 (DR9)): 0.0820
DR6w19 binding data (DRB1*1302 (DR6w19)): 0.0003
DR4w15 binding data (DRB1*0405 (DR4w15)): 0.0086

GPFMKAVCV
B*0702 (binding information) (HLA-B*0702): 0.0023
